Assay results taken from publication PMC12756313.

Molecular target: Protein A (coating of 10 μm silica microparticles) (UniProt P38507)
Test: flow cytometry of beads; protein A coated on 10 μm silica particles, incubated with PE Mouse Anti-Human CD9 for 1 h, washed twice by centrifugation (200× g, 1 min); FACS Canto II, PE excitation 488 nm, filter 585/42; unlabeled proteinA-Silica particles used to set the gate

**Q.** For “BD PE Mouse Anti-Human CD9 (Catalogue #341647, BD Biosciences) (antibody)”, which percent of beads positive for PE is on record?
**A.** 93%
